Experimental data from the array DNA melting data of Ke et al..

Experiment: melting temperature; melt of duplexes
Conditions: sodium 0.0675 M; strand 1 µM
With “CGACGTGCGGTATGTGCTG+CAGCACATAAAGCACGTCG ((((((((..(((((((((+)))))))))..))))))))” the Tm was 56.9 °C.
With “CGACGTGCTAGATGTGCTG+CAGCACATGGGGCACGTCG ((((((((...((((((((+))))))))...))))))))” the Tm was 51 °C.
Substance “CGACGTGCCGAATGTGCTG+CAGCACATGAGGCACGTCG (((((((((..((((((((+))))))))..)))))))))” has a Tm of 63.8 °C.
With “CGACGTGCGCCATGTGCTG+CAGCACATGATGCACGTCG ((((((((..(((((((((+)))))))))..))))))))” the Tm was 54.9 °C.
With “CGACGTGCGGAATGTGCTG+CAGCACATAACGCACGTCG (((((((((..((((((((+))))))))..)))))))))” the Tm was 58.6 °C.
Work on “CGACGTGCTTTATGTGCTG+CAGCACATTTTGCACGTCG ((((((((...((((((((+))))))))...))))))))” yielded a Tm of 49.5 °C.
Work on “CGACGTGCTCGATGTGCTG+CAGCACATGTCGCACGTCG ((((((((...((((((((+))))))))...))))))))” yielded a Tm of 48.2 °C.
Work on “CGACGTGCAGAATGTGCTG+CAGCACATGGTGCACGTCG (((((((((..((((((((+))))))))..)))))))))” yielded a Tm of 52.6 °C.
Work on “CGACGTGCTCTATGTGCTG+CAGCACATAGTGCACGTCG ((((((((.((((((((((+)))))))))).))))))))” yielded a Tm of 54.1 °C.
Substance “CGACGTGCCCCATGTGCTG+CAGCACATGCCGCACGTCG ((((((((..(((((((((+)))))))))..))))))))” has a Tm of 50.3 °C.
“CGACGTGCATAATGTGCTG+CAGCACATCTGGCACGTCG ((((((((...((((((((+))))))))...))))))))” showed a Tm of 49.3 °C.
Substance “CGACGTGCACCATGTGCTG+CAGCACATGGGGCACGTCG ((((((((.((((((((((+)))))))))).))))))))” has a Tm of 62.8 °C.
With “CGACGTGCTATATGTGCTG+CAGCACATGCCGCACGTCG ((((((((...((((((((+))))))))...))))))))” the Tm was 48.9 °C.
“CGACGTGCCCAATGTGCTG+CAGCACATGCCGCACGTCG ((((((((...((((((((+))))))))...))))))))” gave a Tm of 48.9 °C.
Work on “CGACGTGCCCTATGTGCTG+CAGCACATTTGGCACGTCG (((((((((..((((((((+))))))))..)))))))))” yielded a Tm of 54.1 °C.
Work on “CGACGTGCAATATGTGCTG+CAGCACATGGTGCACGTCG (((((((((..((((((((+))))))))..)))))))))” yielded a Tm of 51 °C.
In the case of “CGACGTGCCCTATGTGCTG+CAGCACATACGGCACGTCG (((((((((.(((((((((+))))))))).)))))))))”, the Tm is reported as 53.5 °C.
With “CGACGTGCGAGATGTGCTG+CAGCACATGGTGCACGTCG ((((((((...((((((((+))))))))...))))))))” the Tm was 48.5 °C.
In the case of “CGACGTGCTCCATGTGCTG+CAGCACATGGGGCACGTCG ((((((((.((((((((((+)))))))))).))))))))”, the Tm is reported as 61.9 °C.
Work on “CGACGTGCGGGATGTGCTG+CAGCACATACGGCACGTCG ((((((((.(.((((((((+)))))))).).))))))))” yielded a Tm of 55.6 °C.
With “CGACGTGCGGAATGTGCTG+CAGCACATGGAGCACGTCG ((((((((...((((((((+))))))))...))))))))” the Tm was 62.8 °C.
Substance “CGACGTGCTTTATGTGCTG+CAGCACATGGAGCACGTCG (((((((((..((((((((+))))))))..)))))))))” has a Tm of 54.2 °C.
For “CGACGTGCCTTATGTGCTG+CAGCACATATCGCACGTCG ((((((((..(((((((((+)))))))))..))))))))”, the Tm was 49.9 °C.
“CGACGTGCACAATGTGCTG+CAGCACATCCTGCACGTCG (((((((((..((((((((+))))))))..)))))))))” gave a Tm of 47.1 °C.
“CGACGTGCGGAATGTGCTG+CAGCACATAGCGCACGTCG (((((((((..((((((((+))))))))..)))))))))” showed a Tm of 55.5 °C.
Substance “CGACGTGCGAAATGTGCTG+CAGCACATCGGGCACGTCG ((((((((...((((((((+))))))))...))))))))” has a Tm of 48.6 °C.
For “CGACGTGCCCCATGTGCTG+CAGCACATTGAGCACGTCG ((((((((.(.((((((((+)))))))).).))))))))”, the Tm was 50.1 °C.
“CGACGTGCCTTATGTGCTG+CAGCACATAACGCACGTCG ((((((((.((((((((((+)))))))))).))))))))” showed a Tm of 52.2 °C.
Substance “CGACGTGCCGCATGTGCTG+CAGCACATTCAGCACGTCG ((((((((.(.((((((((+)))))))).).))))))))” has a Tm of 48.9 °C.
“CGACGTGCGTGATGTGCTG+CAGCACATCAGGCACGTCG ((((((((.((((((((((+)))))))))).))))))))” gave a Tm of 59.6 °C.
Substance “CGACGTGCAGTATGTGCTG+CAGCACATTGAGCACGTCG ((((((((...((((((((+))))))))...))))))))” has a Tm of 49.1 °C.
In the case of “CGACGTGCTAAATGTGCTG+CAGCACATTTGGCACGTCG ((((((((.((((((((((+)))))))))).))))))))”, the Tm is reported as 57.9 °C.
Work on “CGACGTGCAAAATGTGCTG+CAGCACATTCAGCACGTCG ((((((((..(((((((((+)))))))))..))))))))” yielded a Tm of 52.1 °C.
Work on “CGACGTGCATTATGTGCTG+CAGCACATATTGCACGTCG (((((((((.(((((((((+))))))))).)))))))))” yielded a Tm of 54.5 °C.
In the case of “CGACGTGCGTCATGTGCTG+CAGCACATAGCGCACGTCG (((((((((..((((((((+))))))))..)))))))))”, the Tm is reported as 55.1 °C.
With “CGACGTGCTGCATGTGCTG+CAGCACATCTTGCACGTCG ((((((((...((((((((+))))))))...))))))))” the Tm was 50.1 °C.
Substance “CGACGTGCCGGATGTGCTG+CAGCACATGGAGCACGTCG ((((((((...((((((((+))))))))...))))))))” has a Tm of 51 °C.
With “CGACGTGCGCCATGTGCTG+CAGCACATATGGCACGTCG ((((((((...((((((((+))))))))...))))))))” the Tm was 48.1 °C.
Substance “CGACGTGCACGATGTGCTG+CAGCACATCCCGCACGTCG ((((((((..(((((((((+)))))))))..))))))))” has a Tm of 49.9 °C.
Substance “CGACGTGCTGGATGTGCTG+CAGCACATATAGCACGTCG (((((((((..((((((((+))))))))..)))))))))” has a Tm of 54.6 °C.
“CGACGTGCCGTATGTGCTG+CAGCACATGCGGCACGTCG ((((((((((.((((((((+)))))))).))))))))))” gave a Tm of 62.4 °C.
“CGACGTGCGCTATGTGCTG+CAGCACATTGTGCACGTCG ((((((((.(.((((((((+)))))))).).))))))))” gave a Tm of 51.9 °C.
For “CGACGTGCATTATGTGCTG+CAGCACATAATGCACGTCG (((((((((((((((((((+)))))))))))))))))))”, the Tm was 60.7 °C.
For “CGACGTGCTTCATGTGCTG+CAGCACATGCAGCACGTCG (((((((((.(((((((((+))))))))).)))))))))”, the Tm was 56.9 °C.
“CGACGTGCAGAATGTGCTG+CAGCACATGCAGCACGTCG ((((((((.(.((((((((+)))))))).).))))))))” gave a Tm of 54.6 °C.
For “CGACGTGCGTTATGTGCTG+CAGCACATGAAGCACGTCG ((((((((.(.((((((((+)))))))).).))))))))”, the Tm was 54.8 °C.
For “CGACGTGCGGCATGTGCTG+CAGCACATAAAGCACGTCG ((((((((...((((((((+))))))))...))))))))”, the Tm was 56 °C.
With “CGACGTGCGTCATGTGCTG+CAGCACATGAGGCACGTCG ((((((((.((((((((((+)))))))))).))))))))” the Tm was 60.7 °C.
“CGACGTGCAGGATGTGCTG+CAGCACATTCGGCACGTCG ((((((((.(.((((((((+)))))))).).))))))))” showed a Tm of 56.2 °C.
“CGACGTGCCCGATGTGCTG+CAGCACATTATGCACGTCG ((((((((...((((((((+))))))))...))))))))” gave a Tm of 48.4 °C.
For “CGACGTGCCGTATGTGCTG+CAGCACATCCAGCACGTCG ((((((((.(.((((((((+)))))))).).))))))))”, the Tm was 49.8 °C.
“CGACGTGCATGATGTGCTG+CAGCACATGATGCACGTCG ((((((((((.((((((((+)))))))).))))))))))” gave a Tm of 56.8 °C.
In the case of “CGACGTGCACGATGTGCTG+CAGCACATTCCGCACGTCG ((((((((...((((((((+))))))))...))))))))”, the Tm is reported as 44.5 °C.
In the case of “CGACGTGCTCCATGTGCTG+CAGCACATAACGCACGTCG ((((((((...((((((((+))))))))...))))))))”, the Tm is reported as 47 °C.
For “CGACGTGCCTAATGTGCTG+CAGCACATCAGGCACGTCG ((((((((((.((((((((+)))))))).))))))))))”, the Tm was 56.3 °C.
Substance “CGACGTGCAAAATGTGCTG+CAGCACATCCCGCACGTCG ((((((((...((((((((+))))))))...))))))))” has a Tm of 47.2 °C.
For “CGACGTGCAGGATGTGCTG+CAGCACATCAGGCACGTCG ((((((((..(((((((((+)))))))))..))))))))”, the Tm was 56.6 °C.
With “CGACGTGCCTTATGTGCTG+CAGCACATAGCGCACGTCG ((((((((..(((((((((+)))))))))..))))))))” the Tm was 50.4 °C.
With “CGACGTGCGGCATGTGCTG+CAGCACATCGGGCACGTCG ((((((((...((((((((+))))))))...))))))))” the Tm was 49.6 °C.
“CGACGTGCGCTATGTGCTG+CAGCACATGTCGCACGTCG (((((((((..((((((((+))))))))..)))))))))” showed a Tm of 54.8 °C.
“CGACGTGCCCGATGTGCTG+CAGCACATTGGGCACGTCG ((((((((((.((((((((+)))))))).))))))))))” gave a Tm of 62.4 °C.
“CGACGTGCGAGATGTGCTG+CAGCACATGACGCACGTCG (((((((((..((((((((+))))))))..)))))))))” gave a Tm of 53.2 °C.
For “CGACGTGCTGCATGTGCTG+CAGCACATGGTGCACGTCG ((((((((..(((((((((+)))))))))..))))))))”, the Tm was 54.2 °C.
For “CGACGTGCCTAATGTGCTG+CAGCACATCTTGCACGTCG ((((((((...((((((((+))))))))...))))))))”, the Tm was 48 °C.
Work on “CGACGTGCTATATGTGCTG+CAGCACATATAGCACGTCG (((((((((((((((((((+)))))))))))))))))))” yielded a Tm of 61.3 °C.
“CGACGTGCTGAATGTGCTG+CAGCACATATCGCACGTCG ((((((((...((((((((+))))))))...))))))))” gave a Tm of 50.2 °C.
For “CGACGTGCCGGATGTGCTG+CAGCACATACCGCACGTCG ((((((((.(.((((((((+)))))))).).))))))))”, the Tm was 53.6 °C.
“CGACGTGCAGTATGTGCTG+CAGCACATGACGCACGTCG ((((((((...((((((((+))))))))...))))))))” gave a Tm of 49.1 °C.
“CGACGTGCTGGATGTGCTG+CAGCACATATGGCACGTCG ((((((((...((((((((+))))))))...))))))))” showed a Tm of 52.7 °C.
Substance “CGACGTGCAGTATGTGCTG+CAGCACATTCAGCACGTCG ((((((((.(.((((((((+)))))))).).))))))))” has a Tm of 51.1 °C.
“CGACGTGCGGGATGTGCTG+CAGCACATGAGGCACGTCG ((((((((...((((((((+))))))))...))))))))” gave a Tm of 51.9 °C.
With “CGACGTGCGTGATGTGCTG+CAGCACATGGGGCACGTCG ((((((((...((((((((+))))))))...))))))))” the Tm was 51.2 °C.
